Assay results taken from US20240262870.

Biological target: hexa-histidine tagged ComP from A. baylyi ADP1 (ComPADP1)

B1: PglS oligosaccharyltransferase from A. baylyi ADP1 (PglSADP1) (protein)
chain: MNSIFKKIKNYTIVSGVFFLGSAFIIPNTSNLSSTLYKELIAVLGLLILLTVKSFDYKKILIPKNFYWFLFVIFIIFIQLIVGEIYFFQDFFFSISFLVILFLSFLLGFNERLNGDDLIVKKIAWIFIIVVQISFLIAINQKIEIVQNFFLFSSSYNGRSTANLGQPNQFSTLILITLFLLCYLREKNSLNNMVFNILSFCLIFANVMTQSRSAWISVILISLLYLLKFQKKIELRRVIFFNIVFWTLVYCVPLLFNLIFFQKNSYSTFDRLTMGSSRFEIWPQLLKAVFHKPFIGYGWGQTGVAQLETINKSSTKGEWFTYSHNLFLDLMLWNGFFIGLIISILILCFLIELYSSIKNKSDLFLFFCVVAFFVHCLLEYPFAYTYFLIPVGFLCGYISTQNIKNSISYFNLSKRKLTLFLGCCWLGYVAFWVEVLDISKKNEIYARQFLFSNHVKFYNIENYILDGFSKQLDFQYLDYCELKDKYQLLDFKKVAYRYPNASIVYKYYSISAEMKMDQKSANQIIRAYSVIKNQKIIKPKLKFCSIEY
glycosylation of acceptor with K. pneumoniae K1 or K2 capsular polysaccharide, western blot: PglS was able to glycosylate ComP with the K1 and K2 capsular polysaccharides from K. pneumonia
